Measurements as given in patent US20100286027A1, “ANTI-BACTERIAL COMPOSITIONS” (priority 2008, published 2010).
In brackets after ≈: the same amount, converted by molar mass.

Legend:
[1] = test system: Enterococcus faecalis (29212); assay: BacTiter-Glo bacterial ATP content viability assay; conditions: for E. faecals viability by ATP-coupled luminescence assay: FIG. 12, full length protein
[2] = test system: Staphylococcus aureus (29213); assay: BacTiter-Glo bacterial ATP content viability assay; conditions: for S. aureus viability by ATP-coupled luminescence assay: FIG. 12, full length protein
[3] = test system: Listeria monocytogenes (7644); assay: BacTiter-Glo bacterial ATP content viability assay
Bacillus Subtilis (6633) = assay: BacTiter-Glo bacterial ATP content viability assay; conditions: for B. subtilis viability by ATP-coupled luminescence assay: FIG. 12, full length protein
[4] = test system: Prevotella intermedia NB88001; assay: MIC against anaerobic bacteria; assay type: cell-based; conditions: read-out: minimal inhibitory concentration (MIC)
[5] = test system: Propionibacterium acnes NB99001; assay: MIC against anaerobic bacteria; assay type: cell-based; conditions: Cutibacterium acnes, read-out: minimal inhibitory concentration (MIC)
[6] = test system: Eubacterium lentum NB94001; assay: MIC against anaerobic bacteria; assay type: cell-based; conditions: read-out: minimal inhibitory concentration (MIC)
[7] = test system: Peptostreptococcus anaerobius NB97001; assay: MIC against anaerobic bacteria; assay type: cell-based; conditions: read-out: minimal inhibitory concentration (MIC)
[8] = test system: Bacteroides fragilis NB85001; assay: MIC against anaerobic bacteria; assay type: cell-based; conditions: read-out: minimal inhibitory concentration (MIC)
S. maltophilia = assay: Bacterial growth inhibition (FIG. 15); assay type: cell-based, Stenotrophomonas maltophilia; conditions: FIG. 15 Panel A
L. monocytogenes = assay: Bacterial growth inhibition (FIG. 15); assay type: cell-based, Listeria monocytogenes; conditions: FIG. 15 Panel C
[9] = test system: Klebsiella pneumoniae (700603); assay: BacTiter-Glo bacterial ATP content viability assay; conditions: gram −, +/− SD, n = 3, >100 = activity detected but <50% inhibition
[10] = test system: Salmonella choleraesuis (13076); assay: BacTiter-Glo bacterial ATP content viability assay; conditions: gram −, +/− SD, n = 3, >100 = activity detected but <50% inhibition
[11] = test system: H. influenzae NB65027-CDS0021* (TolC efflux pump mutant); assay: MIC against aerobic gram negative bacteria, efflux pump mutant; assay type: cell-based, Haemophilus influenzae; conditions: aerobic gram negative; H. influenzae NB65027-CDS0021*, TolC efflux pump mutant strain
Escherichia coli (25922) = assay: BacTiter-Glo bacterial ATP content viability assay; conditions: gram −, +/− SD, n = 3, >100 = activity detected but <50% inhibition
[12] = test system: Stenotrophomonas maltophilia (17666); assay: BacTiter-Glo bacterial ATP content viability assay; conditions: gram −, +/− SD, n = 3, >100 = activity detected but <50% inhibition
Escherichia coli (8739) = assay: BacTiter-Glo bacterial ATP content viability assay; conditions: gram −, +/− SD, n = 3, >100 = activity detected but <50% inhibition
[13] = test system: Streptococcus pneumoniae (49619); assay: BacTiter-Glo bacterial ATP content viability assay; conditions: gram +, +/− SD, n = 3, >100 = activity detected but <50% inhibition
[14] = test system: lawn of the indicated bacteria; assay: Agar diffusion assay; conditions: FIG. 11 Panel D; 0.5 mg/ml in sterile PBS per well
[15] = test system: Streptococcus pneumoniae (ATCC 49619); assay: Gentamycin protection assay in stable 293 cell lines; conditions: 293 cells stably expressing the protein, infected with S. pneumoniae at MOI 10:1, versus control cells
[16] = test system: E. coli NB27005* (TolC efflux pump mutant); assay: MIC against aerobic gram negative bacteria, efflux pump mutant; assay type: cell-based, Escherichia coli; conditions: aerobic gram negative; E. coli NB27005*, TolC efflux pump mutant strain
[17] = test system: Pseudomonas aeruginosa (27853); assay: BacTiter-Glo bacterial ATP content viability assay; conditions: gram −, +/− SD, n = 3, >100 = activity detected but <50% inhibition
[18] = FIG. 10, 5×10^5 bacteria/100 μl, increasing concentrations, 6 hours at 37° C., relative to controls

Molecule: G908R: full length Nod2 protein carrying the Crohn's-associated G908R mutation
- E. faecals viability by ATP-coupled luminescence assay [1]: deficient
- S. aureus viability by ATP-coupled luminescence assay [2]: deficient
- L. monocytogenes viability by ATP-coupled luminescence assay ([3]; FIG. 12, full length protein): deficient
- B. subtilis viability by ATP-coupled luminescence assay (Bacillus Subtilis (6633)): deficient

Molecule: TLR2: recombinant LRR domain of Toll-like receptor 2; human TLR2-LRR is SEQ ID NO: 6
- L. monocytogenes viability by ATP-coupled luminescence assay [3, 18]: inhibit

Molecule: O=C(O)c1cn(C2CC2)c2cc(N3CCNCC3)c(F)cc2c1=O [Ciprofloxacin, reference compound]
- MIC [4]: 1 µg/mL (≈ 3.02 µM)
- MIC [5]: 1 µg/mL (≈ 3.02 µM)
- MIC [6]: 2 µg/mL (≈ 6.04 µM)
- MIC [7]: 1 µg/mL (≈ 3.02 µM)
- MIC [8]: 8 µg/mL (≈ 24.1 µM)

B1: Nalp3: recombinant LRR domain of Nalp3; human Nalp3-LRR is SEQ ID NO: 7 (protein, listed as Homo sapiens)
chain: MVQCVLPSSSHAACSHGLVNSHLTSSFCRGLFSVLSTSQSLTELDLSDNSLGDPGMRVLCETLQHPGCNIRRLWLGRCGLSHECCFDISLVLSSNQKLVELDLSDNALGDFGIRLLCVGLKHLLCNLKKLWLVSCCLTSACCQDLASVLSTSHSLTRLYVGENALGDSGVAILCEKAKNPQCNLQKLGLVNSGLTSVCCSALSSVLSTNQNLTHLYLRGNTLGDKGIKLLCEGLLHPDCKLQVLELDNCNLTSHCCWDLSTLLTSSQSLRKLSLGNNDLGDLGVMMFCEVLKQQSCLLQNLGLSEMYFNYETKSALETLQEEKPELTVVFEPSW
- L. monocytogenes viability by ATP-coupled luminescence assay [3, 18]: inhibit

B2: NAIP: Neuronal apoptosis inhibitor protein, an LRR protein (protein, UniProt Q13075 1-1403, looked up)
Baculoviral IAP …: MATQQKASDERISQFDHNLLPELSALLGLDAVQLAKELEEEEQKERAKMQKGYNSQMRSEAKRLKTFVTYEPYSSWIPQEMAAAGFYFTGVKSGIQCFCCSLILFGAGLTRLPIEDHKRFHPDCGFLLNKDVGNIAKYDIRVKNLKSRLRGGKMRYQEEEARLASFRNWPFYVQGISPCVLSEAGFVFTGKQDTVQCFSCGGCLGNWEEGDDPWKEHAKWFPKCEFLRSKKSSEEITQYIQSYKGFVDITGEHFVNSWVQRELPMASAYCNDSIFAYEELRLDSFKDWPRESAVGVAALAKAGLFYTGIKDIVQCFSCGGCLEKWQEGDDPLDDHTRCFPNCPFLQNMKSSAEVTPDLQSRGELCELLETTSESNLEDSIAVGPIVPEMAQGEAQWFQEAKNLNEQLRAAYTSASFRHMSLLDISSDLATDHLLGCDLSIASKHISKPVQEPLVLPEVFGNLNSVMCVEGEAGSGKTVLLKKIAFLWASGCCPLLNRFQLVFYLSLSSTRPDEGLASIICDQLLEKEGSVTEMCVRNIIQQLKNQVLFLLDDYKEICSIPQVIGKLIQKNHLSRTCLLIAVRTNRARDIRRYLETILEIKAFPFYNTVCILRKLFSHNMTRLRKFMVYFGKNQSLQKIQKTPLFVAAICAHWFQYPFDPSFDDVAVFKSYMERLSLRNKATAEILKATVSSCGELALKGFFSCCFEFNDDDLAEAGVDEDEDLTMCLMSKFTAQRLRPFYRFLSPAFQEFLAGMRLIELLDSDRQEHQDLGLYHLKQINSPMMTVSAYNNFLNYVSSLPSTKAGPKIVSHLLHLVDNKESLENISENDDYLKHQPEISLQMQLLRGLWQICPQAYFSMVSEHLLVLALKTAYQSNTVAACSPFVLQFLQGRTLTLGALNLQYFFDHPESLSLLRSIHFPIRGNKTSPRAHFSVLETCFDKSQVPTIDQDYASAFEPMNEWERNLAEKEDNVKSYMDMQRRASPDLSTGYWKLSPKQYKIPCLEVDVNDIDVVGQDMLEILMTVFSASQRIELHLNHSRGFIESIRPALELSKASVTKCSISKLELSAAEQELLLTLPSLESLEVSGTIQSQDQIFPNLDKFLCLKELSVDLEGNINVFSVIPEEFPNFHHMEKLLIQISAEYDPSKLVKLIQNSPNLHVFHLKCNFFSDFGSLMTMLVSCKKLTEIKFSDSFFQAVPFVASLPNFISLKILNLEGQQFPDEETSEKFAYILGSLSNLEELILPTGDGIYRVAKLIIQQCQQLHCLRVLSFFKTLNDDSVVEIAKVAISGGFQKLENLKLSINHKITEEGYRNFFQALDNMPNLQELDISRHFTECIKAQATTVKSLSQCVLRLPRLIRLNMLSWLLDADDIALLNVMKERHPQSKYLTILQKWILPFSPIIQK
- growth of S. maltophilia (S. maltophilia): inhibited the growth

B3: Nod2 3020insC: recombinant LRR domain of the Crohn's-associated 3020insC mutant of Nod2 (deoxycytosine inserted at nucleotide position 3020) (protein)
chain: PAAPGEAKSVHAMPGFIWLIRSLYEMQEERLARKAARGLNVGHLKLTFCSVGPTECAALAFVLQHLRRPVALQLDYNSVGDIGVEQLLPCLGVCKALYLRDNNISDRGICKLIECALHCEQLQKLALFNNKLTDGCAHSMAKLLACRQNFLALRLGNNYITAAGAQVLAEGLRGNTSLQFLGFWGNRVGDEGAQALAEALGDHQSLRWLSLVGNNIGSVGAQALALMLAKNVMLEELCLEENHLQDEGVCSLAEGLKKNSSLKILKLSNNCITYLGAEALLQAP
- L. monocytogenes growth (L. monocytogenes): inhibited
- antibacterial activity by bacterial ATP content (IC50), [LRR domain] [9]: None detected
- antibacterial activity by bacterial ATP content (IC50), [LRR domain] [10]: None detected
- antibacterial activity by bacterial ATP content (IC50), [LRR domain] ([1]; Enterococcus faecalis (29212), gram +, +/− SD, n = 3, >100 = activity detected but <50% inhibition): None detected
- E. faecals viability by ATP-coupled luminescence assay [1]: deficient
- minimal inhibitory concentration (MIC) [11]: 64 microgram/ml
- S. aureus viability by ATP-coupled luminescence assay [2]: deficient
- antibacterial activity by bacterial ATP content (IC50), [LRR domain] ([2]; Staphylococcus aureus (29213), gram +, +/− SD, n = 3, >100 = activity detected but <50% inhibition): None detected
- antibacterial activity by bacterial ATP content (IC50), [LRR domain] (Escherichia coli (25922)): None detected
- antibacterial activity by bacterial ATP content (IC50), [LRR domain] [12]: None detected
- L. monocytogenes viability by ATP-coupled luminescence assay ([3]; FIG. 12, full length protein): deficient
- antibacterial activity by bacterial ATP content (IC50), [LRR domain] ([3]; Listeria monocytogenes (7644), gram +, +/− SD, n = 3, >100 = activity detected but <50% inhibition): 16.5 +/− 13.3 microgram/ml
- antibacterial activity by bacterial ATP content (IC50), [LRR domain] (Escherichia coli (8739)): None detected
- antibacterial activity by bacterial ATP content (IC50), [LRR domain] [13]: None detected
- anti-bacterial activity by agar diffusion assay [14]: not
- antibacterial activity by bacterial ATP content (IC50), [LRR domain] (Bacillus Subtilis (6633); Bacillus Subtilis (6633), gram +, +/− SD, n = 3, >100 = activity detected but <50% inhibition): 54.0 +/− 20.2 microgram/ml
- B. subtilis viability by ATP-coupled luminescence assay (Bacillus Subtilis (6633)): deficient
- number of gentamycin-protected intracellular bacteria [15]: No obvious protection
- minimal inhibitory concentration (MIC) [16]: >128 microgram/ml
- antibacterial activity by bacterial ATP content (IC50), [LRR domain] [17]: None detected
